Data: patent publication US20100272750A1
Like-named read-outs stand apart in the source and are kept apart here.

Columns and labels:
Assay in all cases: 125I-probe competition, purified HLA
[1] = target: HLA A0101 (human)
[2] = target: HLA A2601 (human)
[3] = target: HLA A2902 (human)
[4] = target: HLA A3002 (human)
[5] = target: HLA A2402 (human)
[6] = target: HLA A2302 (human)
[7] = target: HLA A0206 (human)
[8] = target: HLA A0201 (human)
[9] = target: HLA A0202 (human)
[10] = target: HLA A0203 (human)
[11] = target: HLA A3101 (human)
[12] = target: HLA A0301 (human)
[13] = target: HLA A1101 (human)
[14] = target: HLA A6801 (human)
[15] = target: HLA A6802 (human)
[16] = remark: other sources report otherwise

Q: Which results are given for ELDPVDLLCY (modifications not checked) [HPV45.E7.20]?
A: IC50 [1]: 26 nM; IC50 [2]: 2110 nM; IC50 [3]: 4290 nM

Q: Which results are given for LQDKILDHY (modifications not checked) [HPV45.E2.17]?
A: IC50 [1]: 32 nM; IC50 [2]: 5000 nM; IC50 [4]: 836 nM

Q: What does the source list for VVFIYIPLF (modifications not checked) [HPV31.E5.64]?
A: IC50 [3]: 302 nM; IC50 [5]: 276 nM; IC50 [6]: 108 nM; IC50 [4]: 268 nM

Q: KLLSKLLCV (modifications not checked) [HPV16.E1.292] was tested. Which IC50 [7] did it give?
A: 125 nM

Q: What about the IC50 [8] of the same binder?
A: 31 nM

Q: What about the IC50 [9] of the same binder?
A: 67.7 nM

Q: What about the IC50 [10] of the same binder?
A: 23 nM

Q: Which IC50 [11] does the source give for STVSVGTAK (modifications not checked) [HPV18.E2.230] here?
A: 1760 nM

Q: What about the IC50 [12] of the same binder?
A: 34 nM

Q: And the IC50 [13]?
A: 6 nM

Q: What about the IC50 [14] of the same binder?
A: 10 nM

Q: What does the source list for SVYGETLEK (modifications not checked) [HPV45.E6.84]?
A: IC50 [11]: 6510 nM; IC50 [12]: 21 nM; IC50 [13]: 9.5 nM; IC50 [14]: 7.2 nM

Q: ATLQDIVLH (modifications not checked) [HPV18.E7.6] was tested. Which IC50 [11] did it give?
A: 543 nM

Q: And the IC50 [12]?
A: 211 nM

Q: What about the IC50 [13] of the same binder?
A: 11 nM

Q: With VYVFCFLLPM (modifications not checked) [HPV18.E5.52] as the binder, how does the IC50 [3] read?
A: 5280 nM

Q: What about the IC50 [5] of the same binder?
A: 178 nM

Q: And the IC50 [6]?
A: 57 nM

Q: With KSAIVTLTY (modifications not checked) [HPV16.E2.329] as the binder, how does the IC50 [1] read?
A: 9 nM

Q: What about the IC50 [4] of the same binder?
A: 6 nM

Q: With VFTFPHAFPF (modifications not checked) [HPV45.E1.578] as the binder, how does the IC50 [3] read?
A: 57 nM

Q: What about the IC50 [5] of the same binder?
A: 90.4 nM

Q: And the IC50 [6]?
A: 15.9 nM

Q: What does the source list for LSQMVQWAY (modifications not checked) [HPV16/31.E1.357]?
A: IC50 [1]: 21 nM; IC50 [2]: 6450 nM; IC50 [3]: 122 nM; IC50 [4]: 0.93 nM

Q: NTELYNLLI (modifications not checked) [HPV45.E6.95] was tested. Which IC50 [1] did it give?
A: 32 nM

Q: And the IC50 [2]?
A: 17300 nM

Q: What does the source list for ATTPIIHLK (modifications not checked) [HPV31.E2.291]?
A: IC50 [11]: 34 nM; IC50 [12]: 10 nM; IC50 [13]: 1.2 nM; IC50 [14]: 2.5 nM

Q: With PYLHSRLVVF (modifications not checked) [HPV31.E1.557] as the binder, how does the IC50 [3] read?
A: 4360 nM

Q: And the IC50 [5]?
A: 38.7 nM

Q: And the IC50 [6]?
A: 2.8 nM

Q: And the IC50 [4]?
A: 2230 nM

Q: STDLRDHIDY (modifications not checked) [HPV16.E2.23] was tested. Which IC50 [1] did it give?
A: 113 nM

Q: What about the IC50 [2] of the same binder?
A: 758 nM

Q: And the IC50 [4]?
A: 17 nM

Q: FVYIPLFLI (modifications not checked) [HPV16.E5.66] was tested. Which IC50 [7] did it give?
A: 59 nM

Q: And the IC50 [8]?
A: 206 nM

Q: What about the IC50 [15] of the same binder?
A: 251 nM

Q: And the IC50 [9]?
A: 323 nM

Q: And the IC50 [10]?
A: 63 nM

Q: Which IC50 [7, 16] does the source give for ILYAHIQCL (modifications not checked) [HPV18.E1.266] here?
A: 236 nM

Q: And the IC50 [8, 16]?
A: 33 nM

Q: And the IC50 [9, 16]?
A: 8.5 nM

Q: And the IC50 [10, 16]?
A: 10.2 nM

Q: GYNTFYIEF (modifications not checked) [HPV18.E2.168] was tested. Which IC50 [3] did it give?
A: 835 nM

Q: And the IC50 [6]?
A: 13 nM

Q: What about the IC50 [4] of the same binder?
A: 1260 nM

Q: What does the source list for VYGTTLEKL (modifications not checked) [HPV31.E6.83]?
A: IC50 [5]: 26 nM; IC50 [6]: 8.2 nM; IC50 [4]: 1240 nM

Q: Which results are given for FYSKVSEFRW (modifications not checked) [HPV31.E6.69]?
A: IC50 [3]: 1780 nM; IC50 [5]: 4.5 nM; IC50 [6]: 8.8 nM; IC50 [4]: 1360 nM

Q: Which IC50 [7] does the source give for GTLGIVCPV (modifications not checked) [HPV16.E7.85.V9] here?
A: 33 nM

Q: And the IC50 [8]?
A: 20 nM

Q: And the IC50 [15]?
A: 32 nM

Q: What about the IC50 [9] of the same binder?
A: 49 nM

Q: And the IC50 [10]?
A: 68 nM

Q: What does the source list for QVDYYGLYY (modifications not checked) [HPV16.E2.151]?
A: IC50 [1]: 2.7 nM; IC50 [2]: 251 nM; IC50 [3]: 25 nM; IC50 [4]: 160 nM

Q: What does the source list for AATKYPLLK (modifications not checked) [HPV16.E4.9]?
A: IC50 [12]: 59 nM; IC50 [13]: 20 nM
